Reference: the supplement of paper PMC7125110
± gives the standard error. For some assays here: Fewer inactive variants are shown than the library holds.

B1: glmS ribozyme (parent)
chain: AUAAAAGCGCCAGAACUACAGAAAUGUAGUUGACGAGGAGGAGGUUUAUCGAAUUUUCGGCGGAUGCCUCCAAA

Columns and labels:
Conditions in all cases: with glucosamine-6-phosphate
glucosamine-6-phosphate [1] = variants of: B1; assay: kcat; higher = faster cleavage; RNA array
In short: (§1)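 E. coli RNA polymerase transcribed barcoded ribozyme variants in situ on sequenced MiSeq chips, which were tracked via a hybridised Cy3 probe at 37 °C. Tiles were imaged over ~14 h after glucosamine-6-phosphate (40 μM to 10 mM) in HEPES/KCl/Mg(OAc)2 buffer was flowed in. Normalised per-tile medians were fit to one- or two-exponential decays for kobs, and kcat and KM came from weighted Michaelis–Menten fits.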

glucosamine-6-phosphate [2] = variants of: B1; assay: self-cleavage kobs at 640 uM GlcN6P; higher = faster cleavage; RNA array
In short: as §1

glucosamine-6-phosphate [3] = variants of: B1; assay: self-cleavage kobs at 2500 uM GlcN6P; higher = faster cleavage; RNA array
In short: as §1

glucosamine-6-phosphate [4] = variants of: B1; assay: KM; higher = weaker cofactor use; RNA array
In short: as §1

glucosamine-6-phosphate [5] = variants of: B1; assay: self-cleavage kobs at 40 uM GlcN6P; higher = faster cleavage; RNA array
In short: as §1

glucosamine-6-phosphate [6] = variants of: B1; assay: self-cleavage kobs at 160 uM GlcN6P; higher = faster cleavage; RNA array
In short: as §1

glucosamine-6-phosphate [7] = variants of: B1; assay: self-cleavage kobs at 10000 uM GlcN6P; higher = faster cleavage; RNA array
In short: as §1

Variant | kcat (glucosamine-6-phosphate [1]) [s⁻¹] | self-cleavage kobs at 640 uM GlcN6P (glucosamine-6-phosphate [2]) [s⁻¹] | self-cleavage kobs at 2500 uM GlcN6P (glucosamine-6-phosphate [3]) [s⁻¹] | KM (glucosamine-6-phosphate [4]) [µM] | self-cleavage kobs at 40 uM GlcN6P (glucosamine-6-phosphate [5]) [s⁻¹] | self-cleavage kobs at 160 uM GlcN6P (glucosamine-6-phosphate [6]) [s⁻¹] | self-cleavage kobs at 10000 uM GlcN6P (glucosamine-6-phosphate [7]) [s⁻¹]
C50U C68A | 3.06e-05 ± 9.8e-06 | 4.9e-05 ± 1.9e-05 | 3.28e-05 ± 1.5e-05 | – | – | – | –
A53C G66A | 0.00434 ± 0.0011 | 0.00107 ± 0.00017 | 0.00288 ± 0.00047 | 1670 ± 640 | 0.000154 ± 2.2e-05 | 0.000292 ± 6.4e-05 | 0.00374 ± 0.00053
A48U U65A | 5.33e-05 ± 4.6e-06 | – | – | – | – | < 1e-05 | –
C50U C70U | 4.57e-05 ± 5.9e-07 | 3.85e-05 ± 1.4e-05 | 4.25e-05 ± 8.3e-06 | 154 ± 18 | – | – | 4.51e-05 ± 7.2e-06
A52G C70U C71G | 2.63e-05 ± 1.1e-05 | – | 4.78e-05 ± 1.9e-05 | – | – | – | –
G51A C61A | 1.66e-05 ± 3.1e-06 | – | – | – | < 1e-05 | – | –
U49A G59U | 1.28e-05 ± 4.5e-06 | – | – | – | – | – | –
A48U U55A U56C | 4.34e-05 ± 3.5e-06 | – | 3.8e-05 ± 1.3e-05 | – | – | – | 4.04e-05 ± 1e-05
A52G C67G | 0.000104 ± 6.8e-06 | 0.000107 ± 1e-05 | 0.000123 ± 1.6e-05 | 22.4 ± 10 | 6.74e-05 ± 9e-06 | 7.15e-05 ± 2.3e-05 | 9.62e-05 ± 8.6e-06
A52G C67U | 0.000905 ± 0.00016 | 0.000166 ± 2.3e-05 | 0.000524 ± 8.6e-05 | 2370 ± 740 | 2.66e-05 ± 1.3e-05 | 7.98e-05 ± 1.7e-05 | 0.000728 ± 8.4e-05
U49G U69G | 6.03e-05 ± 2.8e-05 | 9.69e-05 ± 3.4e-05 | 9.67e-05 ± 2.8e-05 | – | – | – | –
U49G U69A | 4.14e-05 ± 1.7e-05 | – | 8.22e-05 ± 2.2e-05 | – | – | – | –
A53U G59A | 4.83e-05 ± 6.3e-06 | – | 3.5e-05 ± 1.2e-05 | – | < 1e-05 | – | 4.2e-05 ± 8.2e-06
A52G A53G | 0.00183 ± 0.00052 | 0.000264 ± 5.9e-05 | 0.000638 ± 0.0001 | 3690 ± 1700 | – | 0.000131 ± 3e-05 | 0.00145 ± 0.0002
A53U G66A | 0.0162 ± 0.0055 | 0.00327 ± 0.00068 | 0.00666 ± 0.0024 | 2370 ± 1000 | 0.000372 ± 5.2e-05 | 0.000827 ± 0.00015 | 0.0144 ± 0.0026
A53C C70A | 5.94e-05 ± 1.5e-05 | – | 6.85e-05 ± 1.7e-05 | – | < 1e-05 | – | 5.03e-05 ± 1.1e-05
A52U U54C | 0.000603 ± 4.5e-05 | 0.000115 ± 1.9e-05 | 0.000318 ± 5e-05 | 2570 ± 310 | – | 3.57e-05 ± 9.5e-06 | 0.000462 ± 8.6e-05
